In publication PMC5397179 one finds Kd and other: Relative Ion Score data, which are given here for four substances.

A value given as a limit tells only on which side of the number the result lay.

For orientation: Kd means the constant that tells how readily two partners part at equilibrium. A low value points to higher affinity.

Series [1] has as its system PcrA-sCt (C-terminal Tudor-like domain) (Geobacillus stearothermophilus). The series can be described thus: EMSA. Conditions: no binding detected up to 5 uM; 2.5 mM Mg2+; EMSA: 50 nM (so in the source) HEPES-KOH pH 7.5, 100 mM KCl, 2.5 mM MgCl2, 0.1 mg/mL BSA, 1 mM (reagent truncated in material); 20 nM DNA; TBE-PAGE; temperature not …. A general note: A gel shift assay detects complexes by their altered migration in electrophoresis.

The target of the next series is RNAP subunit β. The series can be described thus: pulldown quantified by mass spectrometry. Conditions: parent: est. 16; read off a plot.
A further series has as its target RNAP subunit δ. As to the kind of experiment: pulldown quantified by mass spectrometry. Conditions: parent: est. 12; read off a plot.
The next series concerns the target RNAP subunit α. As to the kind of experiment: pulldown quantified by mass spectrometry. Conditions: parent: est. 6.2; read off a plot.
The target of another series is RNAP subunit β'. As to the kind of experiment: pulldown quantified by mass spectrometry. Conditions: parent: est. 12; read off a plot.
Another series deals with RNAP subunit ω. The series can be described thus: pulldown quantified by mass spectrometry. Conditions: parent: est. 13; read off a plot.

147 base ssDNA oligonucleotide displayed a Kd in series [1] of over 5 µM.
147 bp dsDNA had a Kd in series [1] of over 5 µM.
As to “Biotinylated full length PcrA (Geobacillus stearothermophilus), wild type (from UniProt P56255) K712A”, the other: Relative Ion Score stood at 4.5 with RNAP subunit β; 3.1 with RNAP subunit δ; 2.7 with RNAP subunit α; 3.6 with RNAP subunit β'; 4.7 with RNAP subunit ω.
Take “Biotinylated full length PcrA (Geobacillus stearothermophilus), wild type (from UniProt P56255) L714A”: the other: Relative Ion Score was 4.1 with RNAP subunit β; 3.6 with RNAP subunit δ; 2.7 with RNAP subunit α; 2.8 with RNAP subunit β'; 2.6 with RNAP subunit ω.
